# Results from patent US20200024322A1 (Eli Lilly, published 2020).
# Numbered stars: 1 amine (or outer) side, 2 acyl side, 3 side chain; on linkers, the order of the positions; unused ones are H or OH. Square brackets hold non-standard residues; d marks the D form. Side chains are listed from the residue outwards. Ends that are not written are not given here. * marks the point of attachment. C20 diacid = O=C(O)CCCCCCCCCCCCCCCCCCC(=O)*; C18 diacid = O=C(O)CCCCCCCCCCCCCCCCC(=O)*; γGlu = O=C(O)[C@H](CCC(=O)[*:2])N[*:1]; AEEA = NCCOCCOCC(=O)O; Aib = CC(C)(N)C(=O)O
# T1: human GIP receptor (human, UniProt P48546 22-466)
# T1 construct: whole, on cells; also called hGIPR; hGIP-R
# T1 sequence (looked up): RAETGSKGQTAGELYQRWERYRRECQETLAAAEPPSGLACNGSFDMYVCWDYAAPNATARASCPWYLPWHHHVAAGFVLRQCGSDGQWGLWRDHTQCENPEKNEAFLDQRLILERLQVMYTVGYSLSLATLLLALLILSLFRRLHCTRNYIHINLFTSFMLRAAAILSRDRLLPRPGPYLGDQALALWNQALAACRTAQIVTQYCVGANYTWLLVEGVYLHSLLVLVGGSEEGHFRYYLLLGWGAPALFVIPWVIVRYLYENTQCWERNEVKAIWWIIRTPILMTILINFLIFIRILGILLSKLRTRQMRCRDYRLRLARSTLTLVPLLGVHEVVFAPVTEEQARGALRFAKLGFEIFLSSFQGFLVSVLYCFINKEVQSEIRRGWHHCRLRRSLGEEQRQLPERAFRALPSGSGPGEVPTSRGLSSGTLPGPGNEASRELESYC
# B1: Example 266 (peptide)
# peptide: Y[Aib]EGTFTSDYSILLDKK([AEEA-AEEA-γGlu-C18 diacid])AQ[Aib]AFIEYLIEGGPSSG-NH2
# modifications: N-terminus assumed
# SMILES: CC[C@H](C)[C@H](NC(=O)[C@H](CC(C)C)NC(=O)[C@H](Cc1ccc(O)cc1)NC(=O)[C@H](CCC(=O)O)NC(=O)[C@@H](NC(=O)[C@H](Cc1ccccc1)NC(=O)[C@H](C)NC(=O)C(C)(C)NC(=O)[C@H](CCC(N)=O)NC(=O)[C@H](C)NC(=O)[C@H](CCCCNC(=O)COCCOCCNC(=O)COCCOCCNC(=O)CC[C@H](NC(=O)CCCCCCCCCCCCCCCCC(=O)O)C(=O)O)NC(=O)[C@H](CCCCN)NC(=O)[C@H](CC(=O)O)NC(=O)[C@H](CC(C)C)NC(=O)[C@H](CC(C)C)NC(=O)[C@@H](NC(=O)[C@H](CO)NC(=O)[C@H](Cc1ccc(O)cc1)NC(=O)[C@H](CC(=O)O)NC(=O)[C@H](CO)NC(=O)[C@@H](NC(=O)[C@H](Cc1ccccc1)NC(=O)[C@@H](NC(=O)CNC(=O)[C@H](CCC(=O)O)NC(=O)C(C)(C)NC(=O)[C@@H](N)Cc1ccc(O)cc1)[C@@H](C)O)[C@@H](C)O)[C@@H](C)CC)[C@@H](C)CC)C(=O)N[C@@H](CCC(=O)O)C(=O)NCC(=O)NCC(=O)N1CCC[C@H]1C(=O)N[C@@H](CO)C(=O)N[C@@H](CO)C(=O)NCC(N)=O
# B2: Example 318 (peptide)
# peptide: Y[Aib]EGTFTSDYSILLDKK([AEEA-AEEA-γGlu-C20 diacid])AQ[Aib]EFIEYLIAGGPSSG-NH2
# modifications: N-terminus assumed
# SMILES: CC[C@H](C)[C@H](NC(=O)[C@H](CC(C)C)NC(=O)[C@H](Cc1ccc(O)cc1)NC(=O)[C@H](CCC(=O)O)NC(=O)[C@@H](NC(=O)[C@H](Cc1ccccc1)NC(=O)[C@H](CCC(=O)O)NC(=O)C(C)(C)NC(=O)[C@H](CCC(N)=O)NC(=O)[C@H](C)NC(=O)[C@H](CCCCNC(=O)COCCOCCNC(=O)COCCOCCNC(=O)CC[C@H](NC(=O)CCCCCCCCCCCCCCCCCCC(=O)O)C(=O)O)NC(=O)[C@H](CCCCN)NC(=O)[C@H](CC(=O)O)NC(=O)[C@H](CC(C)C)NC(=O)[C@H](CC(C)C)NC(=O)[C@@H](NC(=O)[C@H](CO)NC(=O)[C@H](Cc1ccc(O)cc1)NC(=O)[C@H](CC(=O)O)NC(=O)[C@H](CO)NC(=O)[C@@H](NC(=O)[C@H](Cc1ccccc1)NC(=O)[C@@H](NC(=O)CNC(=O)[C@H](CCC(=O)O)NC(=O)C(C)(C)NC(=O)[C@@H](N)Cc1ccc(O)cc1)[C@@H](C)O)[C@@H](C)O)[C@@H](C)CC)[C@@H](C)CC)C(=O)N[C@@H](C)C(=O)NCC(=O)NCC(=O)N1CCC[C@H]1C(=O)N[C@@H](CO)C(=O)N[C@@H](CO)C(=O)NCC(N)=O
# B3: Example 317 (peptide)
# peptide: Y[Aib]EGTFTSDYSILLDKK([AEEA-AEEA-γGlu-C20 diacid])AQ[Aib]AFIEYLIAGGPSSG-NH2
# modifications: N-terminus assumed
# SMILES: CC[C@H](C)[C@H](NC(=O)[C@H](CC(C)C)NC(=O)[C@H](Cc1ccc(O)cc1)NC(=O)[C@H](CCC(=O)O)NC(=O)[C@@H](NC(=O)[C@H](Cc1ccccc1)NC(=O)[C@H](C)NC(=O)C(C)(C)NC(=O)[C@H](CCC(N)=O)NC(=O)[C@H](C)NC(=O)[C@H](CCCCNC(=O)COCCOCCNC(=O)COCCOCCNC(=O)CC[C@H](NC(=O)CCCCCCCCCCCCCCCCCCC(=O)O)C(=O)O)NC(=O)[C@H](CCCCN)NC(=O)[C@H](CC(=O)O)NC(=O)[C@H](CC(C)C)NC(=O)[C@H](CC(C)C)NC(=O)[C@@H](NC(=O)[C@H](CO)NC(=O)[C@H](Cc1ccc(O)cc1)NC(=O)[C@H](CC(=O)O)NC(=O)[C@H](CO)NC(=O)[C@@H](NC(=O)[C@H](Cc1ccccc1)NC(=O)[C@@H](NC(=O)CNC(=O)[C@H](CCC(=O)O)NC(=O)C(C)(C)NC(=O)[C@@H](N)Cc1ccc(O)cc1)[C@@H](C)O)[C@@H](C)O)[C@@H](C)CC)[C@@H](C)CC)C(=O)N[C@@H](C)C(=O)NCC(=O)NCC(=O)N1CCC[C@H]1C(=O)N[C@@H](CO)C(=O)N[C@@H](CO)C(=O)NCC(N)=O
# B4: Example 272 (peptide)
# peptide: Y[Aib]EGTFTSDYSILLDKK([AEEA-AEEA-γGlu-C18 diacid])AQ[Aib]AFIEYLIAGGPSSG-NH2
# modifications: N-terminus assumed
# SMILES: CC[C@H](C)[C@H](NC(=O)[C@H](CC(C)C)NC(=O)[C@H](Cc1ccc(O)cc1)NC(=O)[C@H](CCC(=O)O)NC(=O)[C@@H](NC(=O)[C@H](Cc1ccccc1)NC(=O)[C@H](C)NC(=O)C(C)(C)NC(=O)[C@H](CCC(N)=O)NC(=O)[C@H](C)NC(=O)[C@H](CCCCNC(=O)COCCOCCNC(=O)COCCOCCNC(=O)CC[C@H](NC(=O)CCCCCCCCCCCCCCCCC(=O)O)C(=O)O)NC(=O)[C@H](CCCCN)NC(=O)[C@H](CC(=O)O)NC(=O)[C@H](CC(C)C)NC(=O)[C@H](CC(C)C)NC(=O)[C@@H](NC(=O)[C@H](CO)NC(=O)[C@H](Cc1ccc(O)cc1)NC(=O)[C@H](CC(=O)O)NC(=O)[C@H](CO)NC(=O)[C@@H](NC(=O)[C@H](Cc1ccccc1)NC(=O)[C@@H](NC(=O)CNC(=O)[C@H](CCC(=O)O)NC(=O)C(C)(C)NC(=O)[C@@H](N)Cc1ccc(O)cc1)[C@@H](C)O)[C@@H](C)O)[C@@H](C)CC)[C@@H](C)CC)C(=O)N[C@@H](C)C(=O)NCC(=O)NCC(=O)N1CCC[C@H]1C(=O)N[C@@H](CO)C(=O)N[C@@H](CO)C(=O)NCC(N)=O
# B5: Example 264 (peptide)
# peptide: YXEGTXTSDXSIXLDXKAQXEFIXXLIEGGPSSG
# modifications: Aib2; αMeF(2F)6; 4Pal10; αMeL13; Orn16; K17((2-[2-(2-Amino-ethoxy)-ethoxy]-acetyl)2-(γ-Glu)-CO-(CH2)16-CO2H); Aib20; D-Glu24; αMeY25; C-terminal NH2
# B6: Example 265 (peptide)
# peptide: YXEGTXTSDXSIXLDXKAQXEFIXXLIEGG
# modifications: Aib2; αMeF(2F)6; 4Pal10; αMeL13; Orn16; K17((2-[2-(2-Amino-ethoxy)-ethoxy]-acetyl)2-(γ-Glu)-CO-(CH2)16-CO2H); Aib20; D-Glu24; αMeY25; C-terminal NH2
# B7: Example 254 (peptide)
# peptide: YXEGTFTSDYSILLDKKAQQAFIEYLIEGGPSSGAPPPS
# modifications: Aib2; K17((2-[2-(2-Amino-ethoxy)-ethoxy]-acetyl)2-(γ-Glu)-CO-(CH2)18-CO2H); C-terminal NH2
# B8: Example 255 (peptide)
# peptide: YXEGTFTSDYSILLDKKAQHAFIEYLIEGGPSSGAPPPS
# modifications: Aib2; K17((2-[2-(2-Amino-ethoxy)-ethoxy]-acetyl)2-(γ-Glu)-CO-(CH2)18-CO2H); C-terminal NH2
# Tests used:
# human glucagon receptor = biological target: T2, human glucagon receptor (human, UniProt P47871 26-477); assay: [125I]-Gcg competition SPA, hGcgR membranes
# T2 construct: whole, on cells; also called hGcgR; GcgR
# T2 sequence (P47871 26-477): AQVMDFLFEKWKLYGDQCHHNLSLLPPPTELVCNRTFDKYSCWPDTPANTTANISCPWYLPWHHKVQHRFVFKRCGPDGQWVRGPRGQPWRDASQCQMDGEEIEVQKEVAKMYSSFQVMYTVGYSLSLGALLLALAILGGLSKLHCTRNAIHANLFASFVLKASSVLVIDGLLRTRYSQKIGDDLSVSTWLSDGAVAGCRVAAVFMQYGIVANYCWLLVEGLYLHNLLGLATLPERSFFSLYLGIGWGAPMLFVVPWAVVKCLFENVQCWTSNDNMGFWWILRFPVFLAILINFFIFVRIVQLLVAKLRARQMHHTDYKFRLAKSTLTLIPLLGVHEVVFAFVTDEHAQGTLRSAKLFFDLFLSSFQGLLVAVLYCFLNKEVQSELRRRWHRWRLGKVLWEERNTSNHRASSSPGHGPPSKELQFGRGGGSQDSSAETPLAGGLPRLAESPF
# human GLP-1 receptor = biological target: T3, human GLP-1 receptor (human, UniProt P43220 24-463); assay: [125I]-GLP-1 competition SPA, hGLP-1R membranes
# T3 construct: whole, on cells; also called hGLP-1R; hGLP1R
# How it was run: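 Kᵢ values are geometric means (SEM) over replicates run on separate days, derived from IC₅₀ of four-parameter curve fits. Buffer: HEPES 25 mM pH 7.4 with CaCl₂ 2.5 mM, MgCl₂ 1 mM, bacitracin 0.1%, TWEEN-20 0.003%, EDTA-free protease inhibitors.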
# human GIP receptor = biological target: T1, human GIP receptor; assay: [125I]-GIP competition SPA, hGIPR membranes
Binder,Ki (human glucagon receptor),Ki (human GLP-1 receptor),Ki (human GIP receptor)
B1,193 nM,2.01 nM,0.0666 nM
B2,730 nM,7.52 nM,0.0452 nM
B3,253 nM,2.63 nM,0.0215 nM
B4,550 nM,1.22 nM,0.0353 nM
B5,388 nM,0.412 nM,0.015 nM
B6,567 nM,0.537 nM,0.0224 nM
B7,148 nM,2.58 nM,0.108 nM
B8,257 nM,2.58 nM,0.0772 nM
